According to publication PMC2119237:
Where no end group is shown, it is not given here. The star is where a group is joined. AMCA = 7-amino-4-methyl-coumarin-3-acetic acid, Cc1c(CC(=O)*)c(=O)oc2cc(N)ccc12

Molecular target: HLA-DR1 (human (endogenous in WT-100))
Experiment: SEC

binding capacity relative to IM(18-29): 3 fold
Binder: {AMCA}-AILEFRAMAQFSRKTD [AMCA-SP3(1-16), synthetic self-peptide SP3 labelled at the NH2 terminus]
